Consider one substance from patent US20240409647A1, “BISPECIFIC BINDING PROTEINS AGAINST ALARMINS AND USES THEREOF” (SINOMAB BIOSCIENCE LIMITED, priority 2022, published 2024).

Where “and” joins values, the source holds several entries; their conditions need not be identical. Equal entries are not always repeated.

Experiment [1] deals with T1, hIL17RA (Homo sapiens, UniProt Q96F46).
T1 construct: purchased R&D systems
Description: ELISA, SM17 specificity against IL-17 receptor subunits (IL17RA). The conditions noted are these: 0.4 to 0.00064 μg/mL. In kind it is binding. As to the method: A standard ELISA method was used to determine the specificity of SM17 against other human IL17 receptor subunits. Similarly, serially diluted SM17 at different concentrations (final concentrations at 0.4, 0.08, 0.016, 0.0032 and 0.00064 μg/m, respectively) was added to the wells of ELISA plates coated either with human IL-17 receptor subunits A, C, D and E (IL17RA, IL17RC, IL17RD, and IL17RE) (R&D systems).
A general note: In an ELISA, binding on a coated surface is turned into a signal by an enzyme label.

Experiment [2] deals with Human PBMCs. Description: CCL17 release from human PBMC incubated with TSLP. It is filed as cell-based. Set-up: key to Intensity of specific cytokine inhibition, CCL-17: −: no inhibition; +: weak; ++: moderate; +++: strong inhibition. As for the experimental part: Human PBMCs (4×10^5 per group, Ixcells) were incubated with IL-2 (10 unit/mL, PeproTech) and various alarmin/alarmin combinations to mimic the pro-inflammatory cytokines release during allergic diseases. For IL-5 and IL-13 releases, PBMCs were incubated with IL-2 and three alarmins (all 10 ng/ml) for three days. For CCL17 release, PBMC was incubated with TSLP (10 ng/ml) for 1 day. For CCL8 and IFNγ releases, PBMCs were incubated with IL-12 (10 ng/ml, Sino Biological) and IL-33 (10 ng/ml) for 1 day. Cells were pretreated with SM17 (5 μg/ml) or IgG4 isotype control (5 μg/ml) for an hour before the addition of cytokines.
Supernatants were collected and the cytokine concentration were measured by ELISA kits (R&D systems). These established assays were used to test the potency of and SM17 and bsBps. […] Results were expressed in absolute amount in pg/ml.
SM17, three different SM17-anti-IL33 bsBps and three different SM17-anti-TSLP bsBps (all at 5 μg/ml) were added to human PBMC cultures under conditions that shall induce the release of IFNγ, CCL8, CCL17 and IL-5 as described in Example 11 above. The levels of different cytokines and chemotactic factors in supernatant obtained in induced PBMC were evaluated using standard ELISA methods.

In experiment [3] the target is T2, IL-33 (Homo sapiens, UniProt O95760).
T2 construct: purchased R&D systems
T2 sequence (O95760 95-270): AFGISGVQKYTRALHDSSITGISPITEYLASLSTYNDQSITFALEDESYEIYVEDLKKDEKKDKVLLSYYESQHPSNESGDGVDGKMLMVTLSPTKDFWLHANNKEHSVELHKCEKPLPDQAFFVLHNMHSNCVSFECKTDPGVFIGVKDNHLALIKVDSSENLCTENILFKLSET
Description: ELISA, antigen binding specificity of bsBp (IL-33). Details: key: −: no binding; +: weak; ++: moderate; +++: strong binding; N/A refers to no binding affinity. The conditions noted are these: 33.5 nM; antigen coated at 2 μg/mL. As for the experimental part:
Binding specificities of bsBp were evaluated by standard ELISA assays. Briefly, ELISA strips were coated with the respective target antigens, including IL17RB, IL-33, or TSLP (R&D systems) at a final concentration of 2 μg/mL. Bispecific antibodies were added at 33.5 nM to ELISA strips coated with the desired antigen. After incubation under room temperature for 2 hours, ELISA strips were washed five times with PBS. […] No result is provided for SM17-human TSLPR as the yield was too low to be detected.

Experiment [4] addresses T3, TSLP (Homo sapiens, UniProt Q969D9).
T3 construct: purchased R&D systems
The experiment in a line: Bio-Layer Interferometry (Octet), binding kinetics of bsBp to human TSLP. As to the method:
The binding affinity of bsBp to the targeted alarmins was determined using a bio-Layer Interferometry analysis (Octet ReD96 system, Sartorius). bsBp or SM17 (20 μg/mL) was immobilized on biosensors via binding to anti-human Fab CH1 region; serially diluted human IL33 and TSLP (158.7 nM, 79.4 nM, 39.7 nM) (R&D systems) were added to plot the association and dissociation curve according to the manufacturer's specification. Biosensors immobilized with irrelevant antibody (SM03, anti-human CD22 chimeric IgG1 antibody, SinoMab BioScience Limited, 20 μg/mL) were used as control reference.
Background: BLI is a label-free optical method that tracks binding on a fibre tip over time.

Experiment [5] addresses T4, murine IL17RB (Mus musculus, UniProt Q9JIP3).
T4 construct: purchased R&D systems
T4 sequence (Q9JIP3 18-499): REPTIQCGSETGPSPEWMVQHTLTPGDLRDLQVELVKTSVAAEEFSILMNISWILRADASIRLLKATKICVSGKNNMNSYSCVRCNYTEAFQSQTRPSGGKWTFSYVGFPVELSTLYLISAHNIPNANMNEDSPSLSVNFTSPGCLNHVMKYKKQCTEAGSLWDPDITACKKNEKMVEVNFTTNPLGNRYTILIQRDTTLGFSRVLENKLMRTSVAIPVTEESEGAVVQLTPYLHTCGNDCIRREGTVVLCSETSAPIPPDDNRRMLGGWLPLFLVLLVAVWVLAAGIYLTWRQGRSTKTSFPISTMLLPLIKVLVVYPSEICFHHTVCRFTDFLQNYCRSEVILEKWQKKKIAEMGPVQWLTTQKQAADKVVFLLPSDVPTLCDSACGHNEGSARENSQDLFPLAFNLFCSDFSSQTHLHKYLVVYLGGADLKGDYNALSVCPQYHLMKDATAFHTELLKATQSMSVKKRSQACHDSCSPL
The experiment in a line: ELISA, SM17 binding to coated IL-17RB protein (murine). The conditions noted are these: two wells. As for the experimental part:
A standard enzyme-linked immunosorbent assay (ELISA) method was used to determine the species specificity of SM17 against IL-17RB proteins. Briefly, IL-17RB proteins from human, mouse, cynomolgus or rhesus monkey (R&D systems, Minneapolis, MN) were diluted to 2.5 μg/ml in PBS and 50 μl of IL-17RB proteins were added to each well of ELISA strip. The strips were sealed with parafilm and incubated at 4° C. overnight for coating.
On the next day, strips were washed thrice with washing buffer (0.05% Tween 20 in PBS) and blocked with 100 μl per well with blocking buffer (3% BSA in PBS) for 2 hours RT before serially diluted SM17 (at a final concentration of 10, 2, 0.4, 0.08, 0.016, 0.0032, and 0.00064 μg/ml, respectively) was added.

As for “SM17: humanized anti-IL17RB monoclonal antibody, human IgG4 isotype; HC SEQ ID NO: 32, LC SEQ ID NO: 33”, in experiment [1], the “binding of SM17 to IL17RA (in words)” value is reported as “No obvious bindings”. Further, the “Intensity of specific cytokine inhibition, CCL-17” value in experiment [2] (5 μg/ml, human PBMC) is “−”. Also, the “CCL17 release (in words)” value in experiment [2] (SM17 5 μg/ml, TSLP 10 ng/ml, 1 day, vs IgG4 isotype control) was “no inhibitory effects”. Moreover, in experiment [3], the “Intensity of specific antigen binding, IL-33 coated on ELISA strips” value is given as “−”. This substance had a Kdis in experiment [4] of 0.001 s⁻¹. Further, in experiment [4] (bsBp or SM17 immobilized at 20 μg/mL), the Ka was determined as 10000 M⁻¹ s⁻¹. Further, the “OD 450 nm Absorption, murine IL17RB” value in experiment [5] (SM17 0.0032 μg/mL) was 0.12 and 0.19; in experiment [5] (SM17 0.016 μg/mL), 0.31; in experiment [5] (SM17 0.08 μg/mL), 0.78; in experiment [5] (SM17 0.4 μg/mL), 1.68 and 1.61; in experiment [5] (SM17 2 μg/mL) it was 2.46 and 2.44; in experiment [5] (SM17 10 μg/mL), 2.67 and 2.61.
